Experimental findings from patent US20200181263A1 (NUMAB THERAPEUTICS, published 2020) are described below.

Assay [1] concerns the target T1, human IL23R IL12Rbeta 1 heterodimer on CHO-K1 cells (human, UniProt Q5VWK5 24-629; P42701 24-662). Description: cell-based or functional assay.
Assay [2] has as its target T1, human IL23R IL12Rbeta 1 heterodimer on …. Description: cell-based or functional assay. This is another data set of the same source.
The target in assay [3] is T2, human CD3 gamma-epsilon single-chain (human, UniProt P09693 23-103; P07766 23-118).
T2 construct: Recombinant protein immobilised on the SPR chip
Description: SPR, target immobilised by amine coupling, binder as analyte. A general note: In SPR one partner is held on a chip, and binding of the other changes the refractive index at the surface.

Assay [4] has as its target T3, cyno CD3 (cyno, UniProt Q95LI5 22-117).
T3 sequence (looked up): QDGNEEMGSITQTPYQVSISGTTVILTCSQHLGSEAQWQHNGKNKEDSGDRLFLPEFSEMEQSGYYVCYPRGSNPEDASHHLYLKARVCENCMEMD
The description is as above.

In assay [5] the target is T4, human serum albumin (human, UniProt P02768 25-609).
T4 construct: also called HSA
The assay is described as above.

Assay [6] has as its target T5, human IL-23 receptor ECD (human, UniProt Q5VWK5 24-355).
T5 construct: extracellular domain
T5 sequence (looked up): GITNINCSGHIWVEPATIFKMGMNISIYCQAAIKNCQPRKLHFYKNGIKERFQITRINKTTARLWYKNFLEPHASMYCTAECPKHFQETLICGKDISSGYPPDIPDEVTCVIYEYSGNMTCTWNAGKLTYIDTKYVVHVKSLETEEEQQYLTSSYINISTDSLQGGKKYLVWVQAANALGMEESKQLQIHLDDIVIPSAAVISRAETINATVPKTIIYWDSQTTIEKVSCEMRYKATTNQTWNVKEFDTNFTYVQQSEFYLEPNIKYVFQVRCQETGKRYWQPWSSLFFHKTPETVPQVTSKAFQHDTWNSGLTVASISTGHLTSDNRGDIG
The assay is described as above.

B1: PRO746 (MATCH) (other)
chain 1: DIQMTQSPSSLSASVGDRVTITCQASENIYSFLAWYQQKPGKAPKLLIYSASKLAAGVPSRFSGSGSGTDFTLTISSLQPEDFATYYCQQTNRYSNPDIYNVFGTGTKVTVLGGGGGSGGGGSGGGGSGGGGSEVQLVESGGGLVQPGGSLRLSCAASGIDFNSNYYMCWVRQAPGKGLEWIGCIYVGSHVNTYYANWAKGRFTISRDNSKNTVYLQMNSLRAEDTAVYYCATSGSSVLYFKFWGQGTLVTVSSGGGGSGGGGSDIQMTQSPSSLSASVGDRVTITCQSSQSVFSNNYLAWFQQKPGQSPKRLIYSASTLASGVPSRFSGSGSGTDFTLTISSLQPEDFATYYCLGSYACSSADCYVFGCGTKVTVLGEPEPEPEPEPEPEPDIQMTQSPSSLSASVGDRVTITCQSSESVYSNNQLSWYQQKPGQPPKLLIYDASDLASGVPSRFSGSGSGTDFTLTISSLQPEDFATYYCAGGFSSSSDTAFGGGTKLTVLG
chain 2: DIQMTQSPSSLSASVGDRVTITCQASENIYSFLAWYQQKPGKAPKLLIYSASKLAAGVPSRFSGSGSGTDFTLTISSLQPEDFATYYCQQTNRYSNPDIYNVFGTGTKVTVLGGGGGSGGGGSGGGGSGGGGSEVQLVESGGGLVQPGGSLRLSCAASGIDFNSNYYMCWVRQAPGKGLEWIGCIYVGSHVNTYYANWAKGRFTISRDNSKNTVYLQMNSLRAEDTAVYYCATSGSSVLYFKFWGQGTLVTVSSGGGGSGGGGSEVQLVESGGGLVQPGGSLRLSCAASGFSLSSNAMGWVRQAPGKGLEYIGIISVGGFTYYASWAKGRFTISRDNSKNTVYLQMNSLRAEDTATYFCARDRHGGDSSGAFYLWGQGTLVTVSSKPKPKPKPKPKPKPEVQLVESGGGLVQPGGSLRLSCAASGFSLSSYDMSWVRQAPGKCLAWIGASYASGPTYYASWAKGRFTISRDNSKNTVYLQMNSLRAEDTATYFCARGGWTGTSHSNIWGQGTLVTVSS
notes: Hetero-dimeric MATCH, anti-parallel, two anti-IL23R scFv modules on a CD3/HSA core; interchain disulfide in the anti-CD3 VL/VH interface; charged core linkers; also called MATCH-4 anti-TAA2xCD3xHSA; heterodimeric MATCH
One may read the Kd as the free concentration of one partner at which half of the binding sites on the other are occupied at equilibrium, for simple one-to-one binding. Low readings indicate a tighter complex, high ones a looser complex. In the case of B1, the “EC50 of T-cell activation (NFAT reporter, with HSA), 5 h” value in assay [1] was 266000 nM. In assay [1], the “EC50 of T-cell activation (NFAT reporter, with HSA), 30 h” value was 102000 nM. In assay [2], the “NFAT assay EC50 (T-cell activation, 5 h)” value is 0.19 nM. Moreover, the Kd in assay [3] was determined as 3.52 nM; in assay [4] it was 3.19 nM; in assay [5] it was 0.141 nM; in assay [6], 0.0249 nM.
